Experimental data published in the supplement of paper PMC10126150.
± gives the standard deviation of the averaged measurements.

tested on: ATP; assay: switch fluorescence ratio, 500 uM ATP over buffer (Cy3 cluster intensity, sum of 5 cycles each) (fold (ratio)); higher = stronger signal-on switching upon ATP binding; sequences stand for … in TCGTCGGCAGCGTCAGATGTGTATAAGAGACAGTTTTTTTTTTTTTTTTTTTTTTTTT…TC; conditions: aptamer strand: ATP DNA aptamer (quencher-CACCTGGGGGAGTATTGCGGAGGAAGG + anchor), 100 nM annealed; ATP concentration: 500 uM
Procedure, shortened: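 The fluorescence ratio divides summed target-cycle Cy3 intensity by summed buffer-cycle Cy3 intensity for each cluster and is averaged per switch-domain sequence. Cy3-labelled switching-strand clusters on a modified Illumina MiSeq flow-cell were annealed to 100 nM quencher-labelled ATP aptamer, then imaged in selection buffer and again after 15 min with 500 uM ATP at 22 °C. Five such cycles were run, with NaOH stripping and re-annealing between them, and clusters outside 100-1000 RFU were excluded.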
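Further: ATP exposure 15 min at 22 °C before imaging.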

CTCGGCGTCG and CTCGGGACGG are within error of each other in switch fluorescence ratio: 1.03 ± 0.019 for the first, 1.005 ± 0.01 for the second.

CTCGGGCAGG and CTCGGGGCGG are within error of each other in switch fluorescence ratio: 1.01 ± 0.032 for the first, 1.02 ± 0.037 for the second.

CTCGGGGGAG and CTCGGGGGGA are within error of each other in switch fluorescence ratio: 0.991 ± 0.026 for the first, 1.01 ± 0.018 for the second.

CTCGGGGGTT and CTCGGTGAGG are within error of each other in switch fluorescence ratio: 1.06 ± 0.08 for the first, 0.991 ± 0.029 for the second.

CTCGGTGTGG and CTCGGTTTAG are the same in switch fluorescence ratio: 1 ± 0.033 for the first, 1 ± 0.038 for the second.

Going from CTCGGTTTTT to CTCGTAATTG, the switch fluorescence ratio rises from 0.989 ± 0.035 to 1.09 ± 0.052.

CTCGTGAGTT and CTCGTTCGGC are within error of each other in switch fluorescence ratio: 1.02 ± 0.021 for the first, 0.98 ± 0.024 for the second.

CTCGTTTATC and CTCTAAGGCT are within error of each other in switch fluorescence ratio: 1.03 ± 0.032 for the first, 1.007 ± 0.009 for the second.

First: CTCTACGAGA
Second: CTCTACTCAA
The switch fluorescence ratio of the first is lower: 0.983 ± 0.015 for the first, 1.37 ± 0.031 for the second.

First: CTCTATAACT
Second: CTCTATTGGG
The switch fluorescence ratio of the first is higher: 1.0133 ± 0.00043 for the first, 0.993 ± 0.014 for the second.

Going from CTCTCAAGGG to CTCTCGGATG, the switch fluorescence ratio falls from 1.088 ± 0.0077 to 1.01 ± 0.011.

Compared with CTCTCTAGCA, CTCTGAGGAG is lower in switch fluorescence ratio: 1.4 ± 0.015 for the first, 1.04 ± 0.035 for the second.

Going from CTCTGCAGTG to CTCTGTTTGG, the switch fluorescence ratio falls from 3.7 ± 0.5 to 0.957 ± 0.021.

CTCTTATAGT and CTCTTCTGGT are within error of each other in switch fluorescence ratio: 0.969 ± 0.019 for the first, 0.971 ± 0.04 for the second.

Going from CTCTTGGAGA to CTCTTTGCGA, the switch fluorescence ratio rises from 1.01 ± 0.026 to 1.404 ± 0.0035.

CTCTTTGCTT and CTCTTTTTTT are within error of each other in switch fluorescence ratio: 1 ± 0.006 for the first, 0.991 ± 0.014 for the second.

CTGAAATTTT and CTGAACAGTA are the same in switch fluorescence ratio: 1.0192 ± 0.00063 for the first, 1.02 ± 0.033 for the second.

CTGAACTATG and CTGAACTGTG are within error of each other in switch fluorescence ratio: 1 ± 0.056 for the first, 0.989 ± 0.11 for the second.

CTGAATACGT and CTGAATTGGG are within error of each other in switch fluorescence ratio: 1.009 ± 0.0078 for the first, 0.999 ± 0.021 for the second.

CTGACATGAG and CTGACCGGGT are within error of each other in switch fluorescence ratio: 1 ± 0.032 for the first, 1.014 ± 0.0015 for the second.

Going from CTGACTCCAA to CTGACTTTTT, the switch fluorescence ratio falls from 2.94 ± 1.6 to 1.02 ± 0.016.

CTGAGCGGCT and CTGAGCTGTG are within error of each other in switch fluorescence ratio: 1.05 ± 0.051 for the first, 0.968 ± 0.035 for the second.

CTGAGGAAGT and CTGAGGCGCC are within error of each other in switch fluorescence ratio: 0.9908 ± 0.0088 for the first, 1.01 ± 0.056 for the second.

CTGAGTATGG and CTGAGTGCGG are within error of each other in switch fluorescence ratio: 1.01 ± 0.0034 for the first, 1.02 ± 0.023 for the second.

Compared with CTGAGTTACT, CTGATATTTG is lower in switch fluorescence ratio: 1.027 ± 0.0025 for the first, 0.998 ± 0.022 for the second.

CTGATCTGTT and CTGATGGGGA are within error of each other in switch fluorescence ratio: 0.998 ± 0.024 for the first, 0.961 ± 0.033 for the second.

First: CTGATGTAGC
Second: CTGATTCGGT
The switch fluorescence ratio of the first is higher: 1.21 ± 0.049 for the first, 0.9889 ± 0.0027 for the second.

First: CTGATTGAGT
Second: CTGATTGGGC
The switch fluorescence ratio of the first is lower: 0.9763 ± 0.0063 for the first, 1 ± 0.013 for the second.

CTGATTTTAT and CTGATTTTTT are within error of each other in switch fluorescence ratio: 0.9856 ± 0.0013 for the first, 1.02 ± 0.045 for the second.

Going from CTGCAACTAA to CTGCACGGAG, the switch fluorescence ratio falls from 2.27 ± 0.054 to 1.01 ± 0.022.

CTGCCTTGTT and CTGCGGGCCG are the same in switch fluorescence ratio: 1 ± 0.015 for the first, 1.004 ± 0.0073 for the second.

CTGCTAAGTA and CTGCTAGGGG are within error of each other in switch fluorescence ratio: 1.01 ± 0.013 for the first, 1.04 ± 0.034 for the second.

Compared with CTGCTGGGGC, CTGCTTGGTT is lower in switch fluorescence ratio: 1.05 ± 0.026 for the first, 1.001 ± 0.0047 for the second.

Going from CTGGAAGCTA to CTGGAAGGGG, the switch fluorescence ratio falls from 1.6 ± 0.1 to 1.04 ± 0.024.

CTGGAAGTTT and CTGGATCCTG are within error of each other in switch fluorescence ratio: 0.952 ± 0.044 for the first, 1.02 ± 0.053 for the second.

CTGGATGGAG and CTGGATTAAT are within error of each other in switch fluorescence ratio: 0.9934 ± 0.0047 for the first, 1.02 ± 0.04 for the second.

CTGGATTTCA and CTGGCATGTA are within error of each other in switch fluorescence ratio: 0.99 ± 0.027 for the first, 1.0141 ± 0.00098 for the second.

Going from CTGGCATTAT to CTGGCCTTTG, the switch fluorescence ratio falls from 1.21 ± 0.038 to 0.983 ± 0.036.

CTGGCGGATT and CTGGCGGGGA are within error of each other in switch fluorescence ratio: 0.985 ± 0.05 for the first, 1.02 ± 0.025 for the second.

CTGGCTAGGC and CTGGCTTTGG are within error of each other in switch fluorescence ratio: 1 ± 0.014 for the first, 1.05 ± 0.043 for the second.

CTGGCTTTTG and CTGGGAACGA are within error of each other in switch fluorescence ratio: 0.999 ± 0.017 for the first, 0.998 ± 0.035 for the second.

CTGGGACAGT and CTGGGAGGAT are within error of each other in switch fluorescence ratio: 0.995 ± 0.034 for the first, 0.98788 ± 0.0003 for the second.

Going from CTGGGAGTGG to CTGGGATGTG, the switch fluorescence ratio falls from 1.04 ± 0.013 to 0.98 ± 0.023.

CTGGGATTGG and CTGGGCACGT are within error of each other in switch fluorescence ratio: 1.001 ± 0.0039 for the first, 0.997 ± 0.023 for the second.

CTGGGCAGGT and CTGGGGATTG are within error of each other in switch fluorescence ratio: 1 ± 0.016 for the first, 1.01 ± 0.014 for the second.

CTGGGGCGTC and CTGGGGGGAG are within error of each other in switch fluorescence ratio: 0.993 ± 0.045 for the first, 1.01 ± 0.024 for the second.

CTGGGGGGGA and CTGGGGGGGT are within error of each other in switch fluorescence ratio: 1.02 ± 0.022 for the first, 0.994 ± 0.036 for the second.

Compared with CTGGGGGTA, CTGGGGGTGG is lower in switch fluorescence ratio: 0.9889 ± 0.0083 for the first, 0.964 ± 0.011 for the second.

CTGGGGTTCG and CTGGGTATGA are within error of each other in switch fluorescence ratio: 1.0213 ± 0.00034 for the first, 1.01 ± 0.024 for the second.

CTGGGTCCGG and CTGGGTGGGG are within error of each other in switch fluorescence ratio: 1.01 ± 0.024 for the first, 1 ± 0.013 for the second.

CTGGGTTGGC and CTGGGTTTCG are within error of each other in switch fluorescence ratio: 1.0029 ± 0.00048 for the first, 0.974 ± 0.042 for the second.

CTGGTAAGGA and CTGGTATTAT are the same in switch fluorescence ratio: 1.017 ± 0.0031 for the first, 1.017 ± 0.0046 for the second.

CTGGTCCGGC and CTGGTGAGTT are within error of each other in switch fluorescence ratio: 1.01 ± 0.078 for the first, 0.9789 ± 0.0012 for the second.

CTGGTGGGAG and CTGGTGGGTC are within error of each other in switch fluorescence ratio: 0.9857 ± 0.0067 for the first, 1.01 ± 0.018 for the second.

Going from CTGGTGTGGA to CTGGTTAATT, the switch fluorescence ratio falls from 1.034 ± 0.0058 to 0.973 ± 0.017.

CTGGTTTATA and CTGGTTTCGG are within error of each other in switch fluorescence ratio: 0.962 ± 0.027 for the first, 0.993 ± 0.022 for the second.

CTGGTTTGAG and CTGTAAGGCC are within error of each other in switch fluorescence ratio: 0.97 ± 0.012 for the first, 0.981 ± 0.015 for the second.

Compared with CTGTAAGGGG, CTGTAATATT is higher in switch fluorescence ratio: 0.977 ± 0.022 for the first, 1.13 ± 0.029 for the second.

CTGTACGGGG and CTGTATATAG are the same in switch fluorescence ratio: 1.02 ± 0.054 for the first, 1.017 ± 0.0083 for the second.

CTGTATGGGT and CTGTATGGTA are within error of each other in switch fluorescence ratio: 0.9978 ± 0.0094 for the first, 1.04 ± 0.045 for the second.

Compared with CTGTATGTCA, CTGTATTCAC is higher in switch fluorescence ratio: 0.99 ± 0.0098 for the first, 1.04 ± 0.033 for the second.

CTGTCAAGTA and CTGTCGAGTA are within error of each other in switch fluorescence ratio: 0.972 ± 0.012 for the first, 1.13 ± 0.19 for the second.

Going from CTGTCTGCCG to CTGTGATACT, the switch fluorescence ratio rises from 1.01 ± 0.017 to 2.93 ± 0.22.

CTGTGGAGGG and CTGTGGGTCC are within error of each other in switch fluorescence ratio: 0.9455 ± 0.0091 for the first, 0.976 ± 0.034 for the second.

CTGTGGGTTC and CTGTGTATGG are within error of each other in switch fluorescence ratio: 1 ± 0.016 for the first, 0.989 ± 0.036 for the second.

CTGTGTCTTT and CTGTTAGAGA are within error of each other in switch fluorescence ratio: 0.995 ± 0.072 for the first, 1.01 ± 0.014 for the second.

Going from CTGTTAGGGG to CTGTTAGGTA, the switch fluorescence ratio rises from 0.967 ± 0.03 to 1.007 ± 0.01.

CTGTTATCGA and CTGTTCTGGC are within error of each other in switch fluorescence ratio: 0.9972 ± 0.0029 for the first, 0.962 ± 0.12 for the second.

CTGTTTATTG and CTGTTTGGTA are within error of each other in switch fluorescence ratio: 0.977 ± 0.027 for the first, 1 ± 0.055 for the second.

CTGTTTGTAT and CTGTTTGTGC are within error of each other in switch fluorescence ratio: 0.978 ± 0.02 for the first, 0.975 ± 0.013 for the second.

CTGTTTTGGT and CTGTTTTTGT are the same in switch fluorescence ratio: 1.008 ± 0.0028 for the first, 1.01 ± 0.024 for the second.

CTTAAAATGG and CTTAAACAGC are within error of each other in switch fluorescence ratio: 1.03 ± 0.038 for the first, 1.02 ± 0.063 for the second.

CTTAAAGAGT and CTTAAAGGTC are within error of each other in switch fluorescence ratio: 0.964 ± 0.043 for the first, 1.02 ± 0.052 for the second.

CTTAAATATG and CTTAAATGTT are within error of each other in switch fluorescence ratio: 1 ± 0.012 for the first, 1.014 ± 0.0078 for the second.

CTTAATTATA and CTTAATTTGA are within error of each other in switch fluorescence ratio: 1.01 ± 0.015 for the first, 0.984 ± 0.058 for the second.

Compared with CTTACATTGC, CTTACCTTGC is higher in switch fluorescence ratio: 1.05 ± 0.029 for the first, 1.99 ± 0.44 for the second.

For CTTACGGCAC, the switch fluorescence ratio was 1.82 ± 0.062.
